Laboratory results reported in patent US20210332110A1 (ROCKEFELLER UNIVERSITY, published 2021).

B1: C121 (antibody, V domains shown)
VH: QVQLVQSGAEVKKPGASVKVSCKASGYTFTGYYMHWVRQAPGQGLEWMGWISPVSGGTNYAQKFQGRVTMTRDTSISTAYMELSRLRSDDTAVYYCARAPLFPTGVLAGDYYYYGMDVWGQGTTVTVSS
VL: QSALTQPASVSGSPGQSITISCTGTSSDVGSYNLVSWYQQHPGKAPKLMIYEGSKRPSGVSNRFSGSKSGNTASLTISGLQAEDEADYYCCSYAGSSTLVFGGGTKLTVL
B2: C144 (antibody, V domains shown)
VH: EVQLVESGGGLIQPGGSLRLSCAASGFTVSNNYMSWVRQAPGKGLEWVSVIYSGGSTYYADSVKGRFTISRDKSKNTLYLQMNRLRAEDTAVYYCAREGEVEGYNDFWSGYSRDRYYFDYWGQGTLVTVSS
VL: QSALTQPASVSGSPGQSITISCTGTSSDVGGYNYVSWYQQHPGKAPKLMIYDVSNRPSGVSNRFSGSKSGNTASLTISGLQAEDEADYYCSSYTSSSTRVFGTGTKVTVL

Biological target: Spike (S) protein of authentic SARS-CoV-2, strain USA-WA1/2020 (SARS-CoV-2, UniProt P0DTC2 14-1273)
Test: cell-based or functional assay

| Binder | IC50, neutralization of authentic SARS-CoV-2 [ng/mL] |
| --- | --- |
| B1 | 1.64 |
| B2 | 2.55 |
